From patent US20240294581

Tested on: T1, Leupeptin A (N-Acetyl-L-leucyl-L-leucyl-L-argininal)
T1 sequence: LLR

Plu4509 (hypothetical protein / candidate protease from P. luminescens TTO1), purified as a His6x-tagged variant
production of metabolites 10 and 11 (in vitro enzyme assay, end point analysis; 1 h, 35 C; LC-MS): addition of enzyme indeed significantly enhanced production of 10 and 11
production of metabolites 10 and 11 in E. coli expressing plu4509, fed leupeptin A, versus vector control: E. coli control cultures were capable of generating both metabolites 10 and 11 with plu4509 providing an enhancement in production over controls
